Test system: Escherichia coli TOP10
Test: shrunken log2 fold change of peptide-encoding DNA abundance (4.5 h post-induction vs induction); higher = less antimicrobial activity (less host growth inhibition)
Conditions: time post-induction: 4.5 h; library: site-saturation at positions 5, 18, 19, 20
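Also: peptides expressed intracellularly from a pBAD plasmid library in pooled LB shake-flask culture, induced with 0.3% L-arabinose, DNA abundance read by NGS, three biological replicates, DESeq2 with apeglm shrinkage.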

| Sequence | shrunken log2 fold change |
| --- | --- |
| RRIRLRPPRLPRPRPRPDVHPRP | -0.186 |
| RRIRLRPPRLPRPRPRPDVLPRP | -0.00959 |
| RRIRLRPPRLPRPRPRPDVNPRP | -0.137 |
| RRIRLRPPRLPRPRPRPDWYPRP | -0.464 |
| RRIRLRPPRLPRPRPRPDYLPRP | -0.114 |
| RRIRLRPPRLPRPRPRPDYVPRP | -0.432 |
| RRIRLRPPRLPRPRPRPEAEPRP | 0.96 |
| RRIRLRPPRLPRPRPRPEAMPRP | 0.284 |
| RRIRLRPPRLPRPRPRPEATPRP | 0.294 |
| RRIRLRPPRLPRPRPRPEAWPRP | 0.0169 |
| RRIRLRPPRLPRPRPRPECGPRP | 0.372 |
| RRIRLRPPRLPRPRPRPECSPRP | 0.177 |
| RRIRLRPPRLPRPRPRPECWPRP | 0.587 |
| RRIRLRPPRLPRPRPRPECYPRP | -0.235 |
| RRIRLRPPRLPRPRPRPEDPPRP | 0.0223 |
| RRIRLRPPRLPRPRPRPEEEPRP | -0.00112 |
| RRIRLRPPRLPRPRPRPEERPRP | 0.231 |
| RRIRLRPPRLPRPRPRPEGFPRP | 0.604 |
| RRIRLRPPRLPRPRPRPEGYPRP | 0.104 |
| RRIRLRPPRLPRPRPRPEIPPRP | -0.0569 |
| RRIRLRPPRLPRPRPRPEMLPRP | -0.108 |
| RRIRLRPPRLPRPRPRPENTPRP | -0.235 |
| RRIRLRPPRLPRPRPRPEQLPRP | 0.131 |
| RRIRLRPPRLPRPRPRPEQPPRP | 0.437 |
| RRIRLRPPRLPRPRPRPESCPRP | 0.0209 |

| Sequence | shrunken log2 fold change |
| --- | --- |
| RRIRLRPPRLPRPRPRPESNPRP | 0.0589 |
| RRIRLRPPRLPRPRPRPETDPRP | 0.0033 |
| RRIRLRPPRLPRPRPRPETFPRP | 0.0211 |
| RRIRLRPPRLPRPRPRPEVVPRP | 0.0493 |
| RRIRLRPPRLPRPRPRPEYEPRP | 0.0712 |
| RRIRLRPPRLPRPRPRPEYHPRP | 0.0779 |
| RRIRLRPPRLPRPRPRPEYRPRP | -0.0221 |
| RRIRLRPPRLPRPRPRPFAAPRP | 0.281 |
| RRIRLRPPRLPRPRPRPFALPRP | 0.187 |
| RRIRLRPPRLPRPRPRPFANPRP | 0.0335 |
| RRIRLRPPRLPRPRPRPFASPRP | -0.062 |
| RRIRLRPPRLPRPRPRPFATPRP | -0.0878 |
| RRIRLRPPRLPRPRPRPFDHPRP | -0.0264 |
| RRIRLRPPRLPRPRPRPFDKPRP | -0.151 |
| RRIRLRPPRLPRPRPRPFEWPRP | -0.151 |
| RRIRLRPPRLPRPRPRPFMLPRP | -0.356 |
| RRIRLRPPRLPRPRPRPFMSPRP | -1.39 |
| RRIRLRPPRLPRPRPRPFNLPRP | -0.596 |
| RRIRLRPPRLPRPRPRPFPTPRP | -0.158 |
| RRIRLRPPRLPRPRPRPFQEPRP | -0.274 |
| RRIRLRPPRLPRPRPRPFRAPRP | 0.113 |
| RRIRLRPPRLPRPRPRPFRQPRP | 0.0662 |
| RRIRLRPPRLPRPRPRPFRYPRP | -0.021 |
| RRIRLRPPRLPRPRPRPFSFPRP | -0.388 |
| RRIRLRPPRLPRPRPRPFTAPRP | -0.625 |

| Sequence | shrunken log2 fold change |
| --- | --- |
| RRIRLRPPRLPRPRPRPFTGPRP | -0.204 |
| RRIRLRPPRLPRPRPRPFVCPRP | -0.0489 |
| RRIRLRPPRLPRPRPRPFVEPRP | -0.478 |
| RRIRLRPPRLPRPRPRPFYCPRP | -0.472 |
| RRIRLRPPRLPRPRPRPGAIPRP | 0.0769 |
| RRIRLRPPRLPRPRPRPGCSPRP | 0.0547 |
| RRIRLRPPRLPRPRPRPGDKPRP | 0.00262 |
| RRIRLRPPRLPRPRPRPGFKPRP | 0.0325 |
| RRIRLRPPRLPRPRPRPGFVPRP | 0.487 |
| RRIRLRPPRLPRPRPRPGGAPRP | 0.384 |
| RRIRLRPPRLPRPRPRPGGRPRP | -0.0451 |
| RRIRLRPPRLPRPRPRPGIGPRP | 0.417 |
| RRIRLRPPRLPRPRPRPGIRPRP | 0.0174 |
| RRIRLRPPRLPRPRPRPGIVPRP | -0.16 |
| RRIRLRPPRLPRPRPRPGKVPRP | -0.0116 |
| RRIRLRPPRLPRPRPRPGNDPRP | -0.0526 |
| RRIRLRPPRLPRPRPRPGNWPRP | 0.0269 |
| RRIRLRPPRLPRPRPRPGPNPRP | 0.0611 |
| RRIRLRPPRLPRPRPRPGPVPRP | 0.753 |
| RRIRLRPPRLPRPRPRPGQNPRP | -0.18 |
| RRIRLRPPRLPRPRPRPGQYPRP | -0.0693 |
| RRIRLRPPRLPRPRPRPGSFPRP | 0.236 |
| RRIRLRPPRLPRPRPRPGTQPRP | -0.0907 |
| RRIRLRPPRLPRPRPRPGTSPRP | -0.0167 |
| RRIRLRPPRLPRPRPRPGWDPRP | 0.507 |
